# According to article PMC9482650, “Quantitative fragmentomics allow affinity mapping of interactomes” (Nature Communications, 2022):
# T1: LIN7C, Q9NUP9
# T1 sequence (Q9NUP9 88-185, limits assumed, looked up): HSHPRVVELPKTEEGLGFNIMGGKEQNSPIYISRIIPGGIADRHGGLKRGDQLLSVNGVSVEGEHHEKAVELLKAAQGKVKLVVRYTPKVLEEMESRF
# T2: ARHGEF11, O15085
# T2 sequence (O15085 42-136, limits assumed, looked up): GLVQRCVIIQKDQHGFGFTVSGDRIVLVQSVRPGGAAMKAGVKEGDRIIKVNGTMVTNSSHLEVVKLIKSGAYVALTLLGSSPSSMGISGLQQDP
# T3: SHANK1, Q9Y566
# T3 sequence (Q9Y566 658-767, limits assumed, looked up): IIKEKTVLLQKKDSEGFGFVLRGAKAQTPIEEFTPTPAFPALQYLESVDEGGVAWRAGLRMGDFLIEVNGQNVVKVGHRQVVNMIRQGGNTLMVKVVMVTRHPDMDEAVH
# T4: TJP3_3, O95049
# T4 sequence (O95049 375-456, limits assumed, looked up): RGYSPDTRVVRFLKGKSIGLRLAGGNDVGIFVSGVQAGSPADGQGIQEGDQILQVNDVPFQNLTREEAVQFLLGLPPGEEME
# T5: LRRC7, Q96NW7
# T5 sequence (Q96NW7 1440-1537, limits assumed, looked up): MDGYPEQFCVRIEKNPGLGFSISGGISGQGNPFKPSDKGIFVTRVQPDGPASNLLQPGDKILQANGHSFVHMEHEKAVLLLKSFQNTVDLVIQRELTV
# T6: APBA1_2, Q02410
# T6 sequence (Q02410 742-832, limits assumed, looked up): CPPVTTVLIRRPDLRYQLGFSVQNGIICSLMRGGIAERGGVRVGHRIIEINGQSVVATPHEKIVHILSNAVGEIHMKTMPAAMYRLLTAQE
# T7: ARHGAP21, Q5T5U3
# T7 sequence (Q5T5U3 45-169, limits assumed, looked up): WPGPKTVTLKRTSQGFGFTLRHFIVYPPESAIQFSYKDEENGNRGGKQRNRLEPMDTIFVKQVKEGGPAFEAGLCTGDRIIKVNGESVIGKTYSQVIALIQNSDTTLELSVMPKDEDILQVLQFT
# T8: RAPGEF6, Q8TEU7
# T8 sequence (Q8TEU7 525-625, limits assumed, looked up): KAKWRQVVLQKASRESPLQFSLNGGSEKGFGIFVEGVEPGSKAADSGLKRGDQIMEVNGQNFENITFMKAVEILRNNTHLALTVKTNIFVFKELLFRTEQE
# T9: LNX2_3, Q8N448
# T9 sequence (Q8N448 463-564, limits assumed, looked up): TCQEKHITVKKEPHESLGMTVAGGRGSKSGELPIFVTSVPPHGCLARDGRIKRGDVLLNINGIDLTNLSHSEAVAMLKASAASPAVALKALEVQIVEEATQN
# T10: APBA1_1, Q02410
# T10 sequence (Q02410 651-752, limits assumed, looked up): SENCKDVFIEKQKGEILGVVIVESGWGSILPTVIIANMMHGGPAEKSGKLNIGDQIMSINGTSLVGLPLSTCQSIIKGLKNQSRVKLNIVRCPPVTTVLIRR
# B1: SLC17A1, Q14916 (peptide)
# chain: WAKEKQHTRL
# Molecular target: Inadl_4, Q8NI35
# Assay: holdup assay
# Set-up: key: below the threshold = too weak to quantify, mostly under pKd 3.1 to 4
# Details: plain residues with an end cap or a label only (N-terminal biotin on a linker: ado-ado)
# Sequence of Inadl_4, Q8NI35 (Q8NI35 547-651): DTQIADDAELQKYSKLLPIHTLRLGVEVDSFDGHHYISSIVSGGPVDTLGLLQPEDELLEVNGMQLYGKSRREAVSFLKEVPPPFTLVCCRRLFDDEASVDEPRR
row,Binder,pKd
1,B1,below the threshold

# Molecular target: NHERF4_2, Q86UT5
# Assay: holdup assay
# Set-up: key: below the threshold = too weak to quantify, mostly under pKd 3.1 to 4
# Details: plain residues with an end cap or a label only (N-terminal biotin on a linker: ado-ado)
# Sequence of NHERF4_2, Q86UT5 (Q86UT5 220-308): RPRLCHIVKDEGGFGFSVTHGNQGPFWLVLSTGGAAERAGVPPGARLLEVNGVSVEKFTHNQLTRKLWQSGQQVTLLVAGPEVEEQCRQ
row,Binder,pKd
1,B1,below the threshold

# Molecular target: T1, LIN7C, Q9NUP9
# Assay: holdup assay
# Set-up: key: below the threshold = too weak to quantify, mostly under pKd 3.1 to 4
# Details: plain residues with an end cap or a label only (N-terminal biotin on a linker: ado-ado)
row,Binder,pKd
1,B1,below the threshold

# Molecular target: MAGI3_2, Q5TCQ9
# Assay: holdup assay
# Set-up: key: below the threshold = too weak to quantify, mostly under pKd 3.1 to 4
# Details: plain residues with an end cap or a label only (N-terminal biotin on a linker: ado-ado)
# Sequence of MAGI3_2, Q5TCQ9 (Q5TCQ9 398-503): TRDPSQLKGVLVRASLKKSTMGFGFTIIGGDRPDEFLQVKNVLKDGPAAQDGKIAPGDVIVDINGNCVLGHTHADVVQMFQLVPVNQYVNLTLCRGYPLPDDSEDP
row,Binder,pKd
1,B1,4.47

# Molecular target: T2, ARHGEF11, O15085
# Assay: holdup assay
# Set-up: key: below the threshold = too weak to quantify, mostly under pKd 3.1 to 4
# Details: plain residues with an end cap or a label only (N-terminal biotin on a linker: ado-ado)
row,Binder,pKd
1,B1,4.25

# Molecular target: MAGI2_3, Q86UL8
# Assay: holdup assay
# Set-up: key: below the threshold = too weak to quantify, mostly under pKd 3.1 to 4
# Details: plain residues with an end cap or a label only (N-terminal biotin on a linker: ado-ado)
# Sequence of MAGI2_3, Q86UL8 (Q86UL8 600-682): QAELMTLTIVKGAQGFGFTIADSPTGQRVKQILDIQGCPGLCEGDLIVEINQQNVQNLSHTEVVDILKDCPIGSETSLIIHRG
row,Binder,pKd
1,B1,below the threshold

# Molecular target: PTPN3, P26045
# Assay: holdup assay
# Set-up: key: below the threshold = too weak to quantify, mostly under pKd 3.1 to 4
# Details: plain residues with an end cap or a label only (N-terminal biotin on a linker: ado-ado)
# Sequence of PTPN3, P26045 (P26045 505-587): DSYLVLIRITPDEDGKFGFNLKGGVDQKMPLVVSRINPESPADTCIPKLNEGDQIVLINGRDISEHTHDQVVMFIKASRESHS
row,Binder,pKd
1,B1,3.85

# Molecular target: Inadl_8, Q8NI35
# Assay: holdup assay
# Set-up: key: below the threshold = too weak to quantify, mostly under pKd 3.1 to 4
# Details: plain residues with an end cap or a label only (N-terminal biotin on a linker: ado-ado)
# Sequence of Inadl_8, Q8NI35 (Q8NI35 1425-1530): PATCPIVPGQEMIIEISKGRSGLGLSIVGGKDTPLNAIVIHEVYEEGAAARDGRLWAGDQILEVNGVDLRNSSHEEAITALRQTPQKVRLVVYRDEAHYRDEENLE
row,Binder,pKd
1,B1,below the threshold

# Molecular target: SCRIB_2, Q14160
# Assay: holdup assay
# Set-up: key: below the threshold = too weak to quantify, mostly under pKd 3.1 to 4
# Details: plain residues with an end cap or a label only (N-terminal biotin on a linker: ado-ado)
# Sequence of SCRIB_2, Q14160 (Q14160 857-960): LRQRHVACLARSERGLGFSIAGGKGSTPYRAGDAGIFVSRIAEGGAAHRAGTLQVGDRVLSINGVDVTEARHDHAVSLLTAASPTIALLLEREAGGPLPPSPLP
row,Binder,pKd
1,B1,below the threshold

# Molecular target: FRMPD2_1, Q68DX3
# Assay: holdup assay
# Set-up: key: below the threshold = too weak to quantify, mostly under pKd 3.1 to 4
# Details: plain residues with an end cap or a label only (N-terminal biotin on a linker: ado-ado)
# Sequence of FRMPD2_1, Q68DX3 (Q68DX3 770-861): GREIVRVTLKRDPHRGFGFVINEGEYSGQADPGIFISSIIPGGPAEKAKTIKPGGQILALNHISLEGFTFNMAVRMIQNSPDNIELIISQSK
row,Binder,pKd
1,B1,below the threshold

# Molecular target: T3, SHANK1, Q9Y566
# Assay: holdup assay
# Set-up: key: below the threshold = too weak to quantify, mostly under pKd 3.1 to 4
# Details: plain residues with an end cap or a label only (N-terminal biotin on a linker: ado-ado)
row,Binder,pKd
1,B1,4.91

# Molecular target: T4, TJP3_3, O95049
# Assay: holdup assay
# Set-up: key: below the threshold = too weak to quantify, mostly under pKd 3.1 to 4
# Details: plain residues with an end cap or a label only (N-terminal biotin on a linker: ado-ado)
row,Binder,pKd
1,B1,below the threshold

# Molecular target: T5, LRRC7, Q96NW7
# Assay: holdup assay
# Set-up: key: below the threshold = too weak to quantify, mostly under pKd 3.1 to 4
# Details: plain residues with an end cap or a label only (N-terminal biotin on a linker: ado-ado)
row,Binder,pKd
1,B1,below the threshold

# Molecular target: PARD3_3, Q8TEW0
# Assay: holdup assay
# Set-up: key: below the threshold = too weak to quantify, mostly under pKd 3.1 to 4
# Details: plain residues with an end cap or a label only (N-terminal biotin on a linker: ado-ado)
# Sequence of PARD3_3, Q8TEW0 (Q8TEW0 582-685): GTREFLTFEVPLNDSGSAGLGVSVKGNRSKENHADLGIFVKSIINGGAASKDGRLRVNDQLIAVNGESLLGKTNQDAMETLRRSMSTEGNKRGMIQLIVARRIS
row,Binder,pKd
1,B1,below the threshold

# Molecular target: T6, APBA1_2, Q02410
# Assay: holdup assay
# Set-up: key: below the threshold = too weak to quantify, mostly under pKd 3.1 to 4
# Details: plain residues with an end cap or a label only (N-terminal biotin on a linker: ado-ado)
row,Binder,pKd
1,B1,below the threshold

# Molecular target: T7, ARHGAP21, Q5T5U3
# Assay: holdup assay
# Set-up: key: below the threshold = too weak to quantify, mostly under pKd 3.1 to 4
# Details: plain residues with an end cap or a label only (N-terminal biotin on a linker: ado-ado)
row,Binder,pKd
1,B1,3.81

# Molecular target: GRID2IP_1, A4D2P6
# Assay: holdup assay
# Set-up: key: below the threshold = too weak to quantify, mostly under pKd 3.1 to 4
# Details: plain residues with an end cap or a label only (N-terminal biotin on a linker: ado-ado)
# Sequence of GRID2IP_1, A4D2P6 (A4D2P6 1-87): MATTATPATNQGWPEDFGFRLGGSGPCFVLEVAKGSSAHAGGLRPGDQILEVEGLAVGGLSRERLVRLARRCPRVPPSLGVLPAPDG
row,Binder,pKd
1,B1,below the threshold

# Molecular target: FRMPD2_2, Q68DX3
# Assay: holdup assay
# Set-up: key: below the threshold = too weak to quantify, mostly under pKd 3.1 to 4
# Details: plain residues with an end cap or a label only (N-terminal biotin on a linker: ado-ado)
# Sequence of FRMPD2_2, Q68DX3 (Q68DX3 944-1038): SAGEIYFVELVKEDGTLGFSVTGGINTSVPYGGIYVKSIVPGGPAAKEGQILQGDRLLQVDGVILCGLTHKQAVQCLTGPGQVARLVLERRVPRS
row,Binder,pKd
1,B1,below the threshold

# Molecular target: T8, RAPGEF6, Q8TEU7
# Assay: holdup assay
# Set-up: key: below the threshold = too weak to quantify, mostly under pKd 3.1 to 4
# Details: plain residues with an end cap or a label only (N-terminal biotin on a linker: ado-ado)
row,Binder,pKd
1,B1,below the threshold

# Molecular target: LDB3, O75112
# Assay: holdup assay
# Set-up: key: below the threshold = too weak to quantify, mostly under pKd 3.1 to 4
# Details: plain residues with an end cap or a label only (N-terminal biotin on a linker: ado-ado)
# Sequence of LDB3, O75112 (O75112 1-94): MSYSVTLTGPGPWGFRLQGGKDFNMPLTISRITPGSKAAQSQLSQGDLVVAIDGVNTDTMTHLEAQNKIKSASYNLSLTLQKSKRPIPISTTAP
row,Binder,pKd
1,B1,below the threshold

# Molecular target: T9, LNX2_3, Q8N448
# Assay: holdup assay
# Set-up: key: below the threshold = too weak to quantify, mostly under pKd 3.1 to 4
# Details: plain residues with an end cap or a label only (N-terminal biotin on a linker: ado-ado)
row,Binder,pKd
1,B1,below the threshold

# Molecular target: DLG2_3, Q15700
# Assay: holdup assay
# Set-up: key: below the threshold = too weak to quantify, mostly under pKd 3.1 to 4
# Details: plain residues with an end cap or a label only (N-terminal biotin on a linker: ado-ado)
row,Binder,pKd
1,B1,below the threshold

# Molecular target: MAGI2_4, Q86UL8
# Assay: holdup assay
# Set-up: key: below the threshold = too weak to quantify, mostly under pKd 3.1 to 4
# Details: plain residues with an end cap or a label only (N-terminal biotin on a linker: ado-ado)
# Sequence of MAGI2_4, Q86UL8 (Q86UL8 772-865): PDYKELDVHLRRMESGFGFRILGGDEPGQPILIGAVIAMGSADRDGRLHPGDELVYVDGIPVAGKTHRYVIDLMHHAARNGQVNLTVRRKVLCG
row,Binder,pKd
1,B1,below the threshold

# Molecular target: Inadl_2, Q8NI35
# Assay: holdup assay
# Set-up: key: below the threshold = too weak to quantify, mostly under pKd 3.1 to 4
# Details: plain residues with an end cap or a label only (N-terminal biotin on a linker: ado-ado)
# Sequence of Inadl_2, Q8NI35 (Q8NI35 238-335): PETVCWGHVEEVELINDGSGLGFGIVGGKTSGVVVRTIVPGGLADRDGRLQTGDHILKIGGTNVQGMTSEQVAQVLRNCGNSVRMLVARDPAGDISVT
row,Binder,pKd
1,B1,below the threshold

# Molecular target: PDLIM1, O00151
# Assay: holdup assay
# Set-up: key: below the threshold = too weak to quantify, mostly under pKd 3.1 to 4
# Details: plain residues with an end cap or a label only (N-terminal biotin on a linker: ado-ado)
# Sequence of PDLIM1, O00151 (O00151 1-87): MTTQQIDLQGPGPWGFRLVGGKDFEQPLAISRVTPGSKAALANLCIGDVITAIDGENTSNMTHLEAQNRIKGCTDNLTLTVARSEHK
row,Binder,pKd
1,B1,below the threshold

# Molecular target: T10, APBA1_1, Q02410
# Assay: holdup assay
# Set-up: key: below the threshold = too weak to quantify, mostly under pKd 3.1 to 4
# Details: plain residues with an end cap or a label only (N-terminal biotin on a linker: ado-ado)
row,Binder,pKd
1,B1,below the threshold

# Molecular target: NHERF4_1, Q86UT5-2
# Assay: holdup assay
# Set-up: key: below the threshold = too weak to quantify, mostly under pKd 3.1 to 4
# Details: plain residues with an end cap or a label only (N-terminal biotin on a linker: ado-ado)
# Sequence of NHERF4_1, Q86UT5-2 (Q86UT5 other isoform, or with tags, fused parts or gaps): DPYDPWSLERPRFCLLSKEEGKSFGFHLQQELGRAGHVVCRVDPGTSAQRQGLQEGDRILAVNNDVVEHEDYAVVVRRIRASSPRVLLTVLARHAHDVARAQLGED
row,Binder,pKd
1,B1,4.07

# Molecular target: DLG4_1, P78352
# Assay: holdup assay
# Set-up: key: below the threshold = too weak to quantify, mostly under pKd 3.1 to 4
# Details: plain residues with an end cap or a label only (N-terminal biotin on a linker: ado-ado)
# Sequence of DLG4_1, P78352 (P78352 62-152): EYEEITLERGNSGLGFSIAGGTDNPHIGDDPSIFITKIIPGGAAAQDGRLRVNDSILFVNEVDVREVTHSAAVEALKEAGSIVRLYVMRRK
row,Binder,pKd
1,B1,3.82
